Measurements as given in patent publication US20240287172A1 (SCIRHOM, published 2024).

T1: hiR2-FL-T436V-T7 (human, UniProt Q6PJF5 1-856)
T1 sequence: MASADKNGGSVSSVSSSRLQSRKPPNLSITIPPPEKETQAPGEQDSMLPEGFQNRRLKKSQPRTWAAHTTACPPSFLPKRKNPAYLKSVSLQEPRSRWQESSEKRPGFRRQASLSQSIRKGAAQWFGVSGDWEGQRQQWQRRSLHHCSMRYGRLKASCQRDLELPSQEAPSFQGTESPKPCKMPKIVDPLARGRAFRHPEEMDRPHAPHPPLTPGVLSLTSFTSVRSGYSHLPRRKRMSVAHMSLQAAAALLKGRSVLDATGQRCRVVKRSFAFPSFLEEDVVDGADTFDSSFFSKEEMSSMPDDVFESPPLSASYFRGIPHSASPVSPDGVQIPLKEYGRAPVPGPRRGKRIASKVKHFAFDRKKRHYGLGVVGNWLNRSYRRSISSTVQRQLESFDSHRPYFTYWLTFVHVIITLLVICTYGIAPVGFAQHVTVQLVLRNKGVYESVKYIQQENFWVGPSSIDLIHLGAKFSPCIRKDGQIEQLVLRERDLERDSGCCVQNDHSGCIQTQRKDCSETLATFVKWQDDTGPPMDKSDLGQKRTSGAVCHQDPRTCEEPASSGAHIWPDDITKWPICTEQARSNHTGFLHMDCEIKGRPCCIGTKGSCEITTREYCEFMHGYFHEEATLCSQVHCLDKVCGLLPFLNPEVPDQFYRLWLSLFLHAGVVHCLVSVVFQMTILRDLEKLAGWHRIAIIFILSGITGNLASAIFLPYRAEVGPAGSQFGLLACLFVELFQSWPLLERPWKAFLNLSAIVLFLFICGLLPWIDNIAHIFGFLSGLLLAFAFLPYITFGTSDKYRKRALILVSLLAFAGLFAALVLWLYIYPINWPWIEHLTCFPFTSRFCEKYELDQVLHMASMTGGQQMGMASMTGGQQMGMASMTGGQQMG

T2: hiR2-FL-Q437D-T7 (human, UniProt Q6PJF5 1-856)
T2 sequence: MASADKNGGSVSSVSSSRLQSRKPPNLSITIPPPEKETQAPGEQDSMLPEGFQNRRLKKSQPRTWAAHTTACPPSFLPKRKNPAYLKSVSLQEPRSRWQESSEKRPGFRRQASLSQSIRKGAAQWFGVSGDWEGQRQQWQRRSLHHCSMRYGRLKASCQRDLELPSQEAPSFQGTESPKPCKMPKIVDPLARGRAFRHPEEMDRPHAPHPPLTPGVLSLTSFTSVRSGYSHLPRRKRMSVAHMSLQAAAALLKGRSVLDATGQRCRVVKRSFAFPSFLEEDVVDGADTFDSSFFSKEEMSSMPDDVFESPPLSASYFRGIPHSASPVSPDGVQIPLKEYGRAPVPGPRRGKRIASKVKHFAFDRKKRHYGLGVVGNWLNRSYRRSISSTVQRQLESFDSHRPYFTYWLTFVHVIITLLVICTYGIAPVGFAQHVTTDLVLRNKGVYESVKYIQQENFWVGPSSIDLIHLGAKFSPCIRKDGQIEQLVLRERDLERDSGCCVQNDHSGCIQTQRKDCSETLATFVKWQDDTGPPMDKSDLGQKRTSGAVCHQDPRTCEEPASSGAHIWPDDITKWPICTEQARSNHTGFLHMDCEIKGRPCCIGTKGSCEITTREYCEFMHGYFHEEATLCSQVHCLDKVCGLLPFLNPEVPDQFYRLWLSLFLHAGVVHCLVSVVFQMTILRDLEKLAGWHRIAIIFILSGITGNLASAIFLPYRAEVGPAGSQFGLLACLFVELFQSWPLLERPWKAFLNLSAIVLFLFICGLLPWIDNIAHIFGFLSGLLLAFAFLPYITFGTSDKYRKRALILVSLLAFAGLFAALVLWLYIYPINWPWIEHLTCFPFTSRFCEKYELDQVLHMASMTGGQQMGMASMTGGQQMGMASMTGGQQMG


How the values were obtained:
hiR2-FL-T436V-T7 = target: T1, hiR2-FL-T436V-T7; assay: FACS, MEF-DKO cells, 3 µg/ml
From the text: (§1) In brief, immortalized MEF-DKO-hiR2-FL-A431S-T7, MEF-DKO-hiR2-FL-V434E-T7, MEF-DKO-hiR2-FL-T436V-T7, MEF-DKO-hiR2-FL-Q437D-T7, MEF-DKO-hiR2-FL-L438S-T7, MEF-DKO-hiR2-FL-S448N-T7, MEF-DKO-hiR2-FL-I452V-T7, MEF-DKO-hiR2-FL-I464E-T7, MEF-DKO-hiR2-FL-D465A-T7, MEF-DKO-hiR2-FL-I477M-T7, MEF-DKO-hiR2-FL-K479Q-T7, MEF-DKO-hiR2-FL-G481P-T7, MEF-DKO-hiR2-FL-I483V-T7, MEF-DKO-hiR2-FL-E484H-T7, MEF-DKO-hiR2-FL-Q485S-T7, MEF-DKO-hiR2-FL-L486F-T7, MEF-DKO-hiR2-FL-V487I-T7, MEF-DKO-hiR2-FL-R489S-T7, MEF-DKO-hiR2-FL-E490A-T7, MEF-DKO-hiR2-FL-D492E-T7, MEF-DKO-hiR2-FL-L493R-T7, MEF-DKO-hiR2-FL-R495K-T7 and MEF-DKO-hiR2-FL-D496H-T7 cells were harvested with 10 mM EDTA in PBS, washed and resuspended in FACS buffer (PBS, 3% FBS, 0.05% sodium azide), and seeded in Nunc U-bottom 96-well plates (Thermo Fisher Scientific, USA) at approximately 1×10⁵ cells per well. To pellet cells and remove supernatants, the plates were centrifuged at 1,500 rpm and 4° C. for 3 minutes. For primary staining, cells were resuspended in 100 μl per well of either FACS buffer alone (controls) or the purified antibodies 3, 5, 16, 22, 34, 42, 43, 44, 48, and 50 of the invention at 3 μg/ml in FACS buffer and incubated on ice for 1 hour. Afterwards, plates were centrifuged at 1,500 rpm and 4° C. for 3 minutes and washed twice with 200 μl per well of FACS buffer. For secondary staining, cells were spun down and resuspended in 100 μl per well of PE-conjugated goat anti-mouse IgG F(ab′)2 detection fragment (Dianova, Germany) diluted 1:100 in FACS buffer. Protected from light, the cell suspensions were incubated on ice for 1 hour. Plates were then centrifuged at 1,500 rpm and 4° C. for 3 minutes and washed three times with 200 μl per well of FACS buffer. Finally, cells were resuspended in 150 μl per well of FACS buffer and analyzed using a BD Accuri™ C6 Plus flow cytometer (Becton Dickinson, Germany).

hiR2-FL-Q437D-T7 = target: T2, hiR2-FL-Q437D-T7; assay: FACS, MEF-DKO cells, 3 µg/ml
From the text: as §1

Binder | loss of binding vs wild type (hiR2-FL-T436V-T7) [%] | loss of binding vs wild type (hiR2-FL-Q437D-T7) [%]
antibody 48 (antibody, V domains shown, mouse IgG, kappa light chain; also called clone #48; purified antibody 48) VH: QVQLQQSGTELVRPGTSVKVSCKASGYAFTNYLIEWVKQRPGQGLEWIGVINPGSGFTKYNEKFKGKATLTADKSSSTVYMHLSSLTSEDSAVYFCARGLYRAMDYWGQGTSVTVSS VL: DIQMTQSPASQSASLGESVTITCLASQTIATWLAWYQQKPGKSPQLLIYGATTLADGVPSRFSGGGSGTKFSFKISSLQAEDFVSYYCQQLYSTPYTFGGGTKLEIK | ≥ 30 | ≥ 30
antibody 50 (antibody, V domains shown, mouse IgG, kappa light chain; also called clone #50; purified antibody 50) VH: QVQLQQSGAELVRPGASVKVSCKASGYAFSNYLIEWVKQRPGQGLEWIGVINPGSGFTKYNEKFKGKATLTADKSSSTAYMQLSSLTSEDSAVYFCARGLYRAMDYWGQGTSVTVSS VL: DIQMTQSPASQSASLGESVTITCLASQTIGTWLAWYQQKPGKSPQLLIYAAASLADGVPSRFSGGGSGTKFSFKISSLQAEDFVNYYCQQIYSTPYTFGGGTKLEIK | ≥ 30 | ≥ 30
